Experiments:
complement protein C3b [1] = biological target: T1, complement protein C3b (UniProt P01024 749-1663; P01024 23-667); assay: SPR, C3b coupled to chip, 1:1 steady state affinity model
T1 construct: also called factor C3b
Protocol: (§1) A surface plasmon resonance (SPR)-based assay (Schmidt et al. (2013), Journal of Immunology 190:5712-5721) was used to determine the affinity of the engineered complement inhibitors for the key complement protein C3b. 1940 response units […] of C3b were coupled to the chip. The samples were run at 25 μl/min in a concentration series with the highest and the lowest concentrations being assayed in duplicate to probe reproducibility. To get an estimation of the KD value for other proteins the plot of response (during steady state) against the assayed concentration was fitted to a 1:1 steady state affinity model.

complement protein C3b [2] = biological target: T1, complement protein C3b; assay: not named in the sentence (SPR on C3b by Table 1)
Protocol: as §1

T1 sequence (P01024 749-1663 limits assumed, chain 1 of 2): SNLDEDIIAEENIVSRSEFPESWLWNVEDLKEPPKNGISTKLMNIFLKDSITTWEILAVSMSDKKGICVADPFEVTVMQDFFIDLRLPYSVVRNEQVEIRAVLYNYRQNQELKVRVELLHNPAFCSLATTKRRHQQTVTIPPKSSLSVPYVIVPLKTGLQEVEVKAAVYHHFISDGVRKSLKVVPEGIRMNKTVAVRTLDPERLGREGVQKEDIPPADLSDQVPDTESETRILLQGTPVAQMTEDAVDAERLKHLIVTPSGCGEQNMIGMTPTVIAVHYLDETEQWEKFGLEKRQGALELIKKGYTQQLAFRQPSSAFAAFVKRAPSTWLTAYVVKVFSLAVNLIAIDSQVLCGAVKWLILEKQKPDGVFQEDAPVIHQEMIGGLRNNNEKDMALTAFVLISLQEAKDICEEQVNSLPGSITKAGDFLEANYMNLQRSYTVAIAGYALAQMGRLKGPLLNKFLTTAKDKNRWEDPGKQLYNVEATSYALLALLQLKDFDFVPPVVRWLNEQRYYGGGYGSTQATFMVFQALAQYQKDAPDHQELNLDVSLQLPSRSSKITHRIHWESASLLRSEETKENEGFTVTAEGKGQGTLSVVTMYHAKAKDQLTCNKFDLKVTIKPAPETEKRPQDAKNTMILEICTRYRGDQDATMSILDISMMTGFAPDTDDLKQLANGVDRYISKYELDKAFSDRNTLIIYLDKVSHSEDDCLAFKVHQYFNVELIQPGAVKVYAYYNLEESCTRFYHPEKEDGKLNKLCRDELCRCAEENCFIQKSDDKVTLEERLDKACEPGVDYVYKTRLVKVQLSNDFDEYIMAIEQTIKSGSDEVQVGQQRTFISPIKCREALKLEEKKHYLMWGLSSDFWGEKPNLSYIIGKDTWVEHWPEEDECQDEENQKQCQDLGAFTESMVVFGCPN
T1 sequence (P01024 23-667 limits assumed, chain 2 of 2): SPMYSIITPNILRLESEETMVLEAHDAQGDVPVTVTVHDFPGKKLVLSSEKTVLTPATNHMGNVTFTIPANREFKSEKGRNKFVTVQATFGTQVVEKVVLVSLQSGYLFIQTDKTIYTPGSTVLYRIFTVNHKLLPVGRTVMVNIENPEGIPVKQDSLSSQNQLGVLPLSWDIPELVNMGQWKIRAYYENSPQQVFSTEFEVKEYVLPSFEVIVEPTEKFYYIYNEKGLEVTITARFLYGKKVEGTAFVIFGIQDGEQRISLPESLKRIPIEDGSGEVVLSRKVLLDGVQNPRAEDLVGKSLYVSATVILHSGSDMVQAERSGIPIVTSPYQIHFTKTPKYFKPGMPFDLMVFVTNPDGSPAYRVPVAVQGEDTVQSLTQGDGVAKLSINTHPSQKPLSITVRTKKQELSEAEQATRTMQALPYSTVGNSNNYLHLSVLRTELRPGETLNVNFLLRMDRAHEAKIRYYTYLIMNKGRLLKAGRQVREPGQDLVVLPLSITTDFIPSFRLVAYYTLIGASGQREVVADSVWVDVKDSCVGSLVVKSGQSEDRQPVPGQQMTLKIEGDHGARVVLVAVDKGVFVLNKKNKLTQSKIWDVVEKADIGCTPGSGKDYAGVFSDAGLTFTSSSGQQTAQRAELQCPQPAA

Binder	Kd (complement protein C3b [1]) [nM]	Kd (complement protein C3b [2]) [nM]
CR1(15-17) (receptor, Produced in Pichia pastoris; also called CCPs 15 to 17 of human CR1) not shown	954	–
FH(19-20) (other, also called CCPs 19 and 20 of Factor H) KCGPPPPIDNGDITSFPLSVYAPASSVEYQCQNLYQLEGNKRITCRNGQWSEPPKCLHPCVISREIMENYNIALRWTAKQKLYSRTGESVEFVCKRGYRLSSRSHTLRTTCWDGKLEYPTCA	4670	–
DAF(1-4) (other, Produced in Pichia pastoris; also called soluble DAF; sDAF) DCGLPPDVPNAQPALEGRTSFPEDTVITYKCEESFVKIPGEKDSVICLKGSQWSDIEEFCQRSCEVPTRLNSASLKQPYITQNYFPVGTVVEYECRPGYRREPSLSPKLTCLQNLKWSTAVEFCKKKSCPNPGEIRNGQIDVPGGILFGATISFSCNTGYKLFGSTSSFCLISGSSVQWSDPLPECREIYCPAPPQIDNGIIQGERDHYGYRQSVTYACNKGFTMIGEHSIYCTVNNDEGEWSGPPPECR	11500	–

Stronger by Kd (complement protein C3b [1]), values ahead:

Kd (complement protein C3b [1]) [nM]	Kd (complement protein C3b [2]) [nM]	Binder
125	–	DAF(1-4)FH(19-20) short linker (other, Fusion protein; the two domains are joined directly; also called DAF(1-4)FH(19-20)-SL) DCGLPPDVPNAQPALEGRTSFPEDTVITYKCEESFVKIPGEKDSVICLKGSQWSDIEEFCNRSCEVPTRLNSASLKQPYITQNYFPVGTVVEYECRPGYRREPSLSPKLTCLQNLKWSTAVEFCKKKSCPNPGEIRNGQIDVPGGILFGATISFSCNTGYKLFGSTSSFCLISGSSVQWSDPLPECREIYCPAPPQIDNGIIQGERDHYGYRQSVTYACNKGFTMIGEHSIYCTVNNDEGEWSGPPPECRGPGGGKCGPPPPIDNGDITSFPLSVYAPASSVEYQCQNLYQLEGNKRITCRNGQWSEPPKCLHPCVISREIMENYNIALRWTAKQKLYSRTGESVEFVCKRGYRLSSRSHTLRTTCWDGKLEYPTCAKR
175	–	DAF(1-4)FH(19-20) long linker (other, Fusion protein with an oligo-glycine linker; also called DAF(1-4)FH(19-20)-LL) DCGLPPDVPNAQPALEGRTSFPEDTVITYKCEESFVKIPGEKDSVICLKGSQWSDIEEFCQRSCEVPTRLNSASLKQPYITQNYFPVGTVVEYECRPGYRREPSLSPKLTCLQNLKWSTAVEFCKKKSCPNPGEIRNGQIDVPGGILFGATISFSCNTGYKLFGSTSSFCLISGSSVQWSDPLPECREIYCPAPPQIDNGIIQGERDHYGYRQSVTYACNKGFTMIGEHSIYCTVNNDEGEWSGPPPECRGGGGGGGGGGGGGGGKCGPPPPIDNGDITSFPLSVYAPASSVEYQCQNLYQLEGNKRITCRNGQWSEPPKCLHPCVISREIMENYNIALRWTAKQKLYSRTGESVEFVCKRGYRLSSRSHTLRTTCWDGKLEYPTCA
22.8	20	DAF(1-4)FH(19-20)CR1(15-17) (other, Multi-domain fusion polypeptide produced in Pichia pastoris; also called triple I; triple-I) DCGLPPDVPNAQPALEGRTSFPEDTVITYKCEESFVKIPGEKDSVICLKGSQWSDIEEFCQRSCEVPTRLNSASLKQPYITQNYFPVGTVVEYECRPGYRREPSLSPKLTCLQNLKWSTAVEFCKKKSCPNPGEIRNGQIDVPGGILFGATISFSCNTGYKLFGSTSSFCLISGSSVQWSDPLPECREIYCPAPPQIDNGIIQGERDHYGYRQSVTYACNKGFTMIGEHSIYCTVNNDEGEWSGPPPECRGGGGGGGGGGGGGGGKCGPPPPIDNGDITSFPLSVYAPASSVEYQCQNLYQLEGNKRITCRNGQWSEPPKCLHPCVISREIMENYNIALRWTAKQKLYSRTGESVEFVCKRGYRLSSRSHTLRTTCWDGKLEYPTCAGGGGGGGHCQAPDHFLFAKLKTQTQASDFPIGTSLKYECRPEYYGRPFSITCLDNLVWSSPKDVCKRKSCKTPPDPVNGMVHVITDIQVGSRIQYSCTTGHRLIGHSSAECILSGNTAHWSTKPPICQRIPCGLPPTIANGDFISTNRENFHYGSVVTYRCNLGSRGRKVFELVGEPSIYCTSNDDQVGIWSGPAPQCII
40.6	40	CR1(1-3)FH(19-20)CR1(15-17) (other, Multi-domain fusion polypeptide produced in Pichia pastoris) QCNAPEWLPFARPTQLTDEFEFPIGTYLNYECRPGYSGRPFSIICLKNSVWTGAKDRCRRKSCRNPPDPVNGMVHVIKGIQFGSQIKYSCTKGYRLIGSSSATCIISGDTVIWDQETPICDRIPCGLPPTITNGDFISTNRENFHYGSVVTYRCNPGSGGRKVFELVGEPSIYCTSNDDQVGIWSGPAPQCIIGGGGGGGGGGGGGGKCGPPPPIDNGDITSFPLSVYAPASSVEYQCQNLYQLEGNKRITCRNGQWSEPPKCLHPCVISREIMENYNIALRWTAKQKLYSRTGESVEFVCKRGYRLSSRSHTLRTTCWDGKLEYPTCAGGGGGGGHCQAPDHFLFAKLKTQTQASDFPIGTSLKYECRPEYYGRPFSITCLDNLVWSSPKDVCKRKSCKTPPDPVNGMVHVITDIQVGSRIQYSCTTGHRLIGHSSAECILSGNTAHWSTKPPICQRIPCGLPPTIANGDFISTNRENFHYGSVVTYRCNLGSRGRKVFELVGEPSIYCTSNDDQVGIWSGPAPQCII

— US20250353894A1 (UNIVERSITAT ULM, published 2025)
